Reference: patent publication US8987433B2, “Variant isoprenoid producing enzymes and uses thereof” (Sapphire Energy, Inc., priority 2009, dated 2015)
Positions count from the first letter of the chain named. “Also recorded” adds a separate entry of the source. Where two headings read alike, the source gives them in different places.

Legend:
E. coli XL1-blue cells = assay: Minimum inhibitory concentration (MIC) of cefotaxime on plated bacterial cells; assay type: cell-based; conditions: for MIC: Escherichia coli, XL1BLUECELLS, 24 h, about 1,000 cells per plate, 24 hours at 37° C.
Description: The minimum inhibitory concentration (MIC) of cefotaxime on bacterial cells lacking a plasmid is determined by plating 10 μl of a 10^−2 dilution of an overnight bacterial culture (about 1000 cfu) of E. coli XL1-blue cells (Stratagene, San Diego Calif.) on plates with varying levels of cefotaxime (Sigma, St. Louis Mo.), followed by incubation for 24 hours at 37° C.
Growth on cefotaxime is sensitive to the density of cells, and therefore similar numbers of cells needed to be plated on each plate (obtained by plating on plain LB plates). Platings of 1000 cells are consistently performed.
After digestion of the 900 bp product with the terminal restriction enzyme SfiI and agarose gel purification, the 900 bp product is ligated into the vector pUC182Sfi at the unique SfiI site with T4 DNA ligase (BRL, Gaithersburg Md.). The mixture is electroporated into E. coli XL1-blue cells and plated on LB plates with 0.32-0.64 μg/ml of cefotaxime (Sigma, St. Louis Mo.). The cells were grown for up to 24 hours at 37° C. and the resulting colonies are scraped off the plate as a pool and used as the PCR template for the next round of shuffling.
The transformants obtained after each of three rounds of shuffling are plated on increasing levels of cefotaxime. The colonies (>100, to maintain diversity) from the plate with the highest level of cefotaxime are pooled and used as the template for the PCR reaction for the next round.
Colonies obtained at 5-10 μg/ml are used for a third round similar to the first and second rounds except the cells are plated on LB plates having 80-160 μg/ml of cefotaxime. After the third round, colonies are obtained at 80-160 μg/ml, and after replating on increasing concentrations of cefotaxime, colonies could be obtained at up to 320 μg/ml after 24 hours at 37° C.
Growth on cefotaxime is dependent on the cell density, requiring that all the MICs be standardized (in our case to about 1,000 cells per plate). […] The 5 largest colonies grown at 1,280 μg/ml are plated for single colonies twice, and the SfiI inserts are analyzed by restriction mapping of the colony PCR products.

[1] = system: Gallus gallus FPP synthase (prenyl transferase activity); assay: Detection of prenyl transferase activity by luminescence measurement (PPi light assay); assay type: biochemical; conditions: DMAPP and IPP substrates, two hours at room temperature, in vitro synthesized Strep-Tag protein, versus wild type control
Description: After gene assembly was completed, the NEB PURExpress in vitro protein synthesis kit was used according to the manufacturer's instructions to produce the variant FPP synthase proteins. After protein synthesis, Strep-Tag magnetic beads (IBA GmbH) were used to isolate the synthesized proteins, after washing the beads with assay buffer (25 mm HEPES pH 7.4, 10 mM MgCl2).
After synthesis, the activity level of the synthesized protein was measured as described in Example 5 by luminescence. Because most mutations are anticipated to be detrimental, it is unlikely for any pool of mutants to have a higher activity than the wild-type protein; pools with higher activity than […] must be deconvoluted to identify individual beneficial mutants.
The residue numbers are reported using the wild-type sequence numbering (SEQ ID NO: 1). The winning pools of nine variants are again resynthesized as discrete mutants and activity measurements are repeated.
This example describes the detection of prenyl transferase activity by luminescence measurement. In this example, an avian FPP synthase (Genbank Accession No. P08836) (SEQ ID NO: 1) was used as the parent prenyl transferase. The parent prenyl transferase was codon-optimized (SEQ ID NO: 21) and inserted into a vector. The nucleic acid sequence of SEQ ID NO: 22 was cloned into the bacterial expression vector pET-21a(+) (FIG. 10) under the control of a T7 promoter. A reaction buffer was produced by mixing 4 μl of 10× reaction buffer (250 mM HEPES pH 7.4, 100 mM MgCl2), 0.2 μl of 1M dithiothreitol, 1 μl of 10 mM DMAPP, 2 μl of 10 mM IPP, and 31.8 μl of water. 1 ng of the Avian FPP synthase (SEQ ID NO: 22) was added to the 39 μl of reaction buffer in a white 96 well microplate. The reaction was sealed with an adhesive plastic cover and allowed to progress for two hours at room temperature.
The PPi light detection and conversion reagents were prepared as instructed by the manufacturer (Lonza Group Ltd., Basel, Switzerland). After the two hour incubation, 40 μl of the conversion reagent, and 40 μl of the detection reagent were added to the wells of the microplate, and the microplate was sealed with an aluminum foil cover. After sixty minutes, the aluminum cover was removed, and the luminescence emitted from each well was measured with a 96 well plate reader in glow luminescence mode. The total luminescence is reported as Relative Luminescence Units (RLU). […] For this study, each pool is a mixture of variants at a single amino acid position.

For CO/N=C(\C(=O)N[C@@H]1C(=O)N2C(C(=O)O)=C(COC(C)=O)CS[C@H]12)c1csc(N)n1 [cefotaxime], the MIC (E. coli XL1-blue cells; read-out: MIC of cefotaxime, cells carrying the starting (unshuffled) gene on pUC18 derivative) was ~0.02 µg/mL, the MIC (E. coli XL1-blue cells; read-out: MIC of cefotaxime, mutant after the third round of shuffling and replating) was 320 µg/mL and the “cefotaxime level at which growth is obtained” value (E. coli XL1-blue cells; at higher cell densities, after third round of shuffling) was “up to 1280 μg/ml”. The “fold increased resistance to cefotaxime” value (E. coli XL1-blue cells; selected mutant versus starting gene) was 16,000 fold.

B1: Thr269Tyr: Gallus gallus FPP synthase (SEQ ID NO: 1) point mutation Thr269Tyr (protein, listed as Gallus gallus)
chain: MHKFTGVNAKFQQPALRNLSPVVVEREREEFVGFFPQIVRDLTEDGIGHPEVGDAVARLKEVLQYNAPGGKCNRGLTVVAAYRELSGPGQKDAESLRCALAVGWCIELFQAFFLVADDIMDQSLTRRGQLCWYKKEGVGLDAINDSFLLESSVYRVLKKYCRQRPYYVHLLELFLQTAYQTELGQMLDLITAPVSKVDLSHFSEERYKAIVKYKTAFYSFYLPVAAAMYMVGIDSKEEHENAKAILLEMGEYFQIQDDYLDCFGDPALYGKVGTDIQDNKCSWLVVQCLQRVTPEQRQLLEDNYGRKEPEKVAKVKELYEAVGMRAAFQQYEESSYRRLQELIEKHSNRLPKEIFLGLAQKIYKRQK
In the case of B1, the “prenyl transferase activity measured by luminescence, compared with wild type” value [1] is reported as “increased prenyl transferase activity as compared to the wild type protein; also recorded: activity greater than wild-type” and the “prenyl transferase activity measured by luminescence, compared with wild type” value ([1]; listed as Thr—269_Tyr) is reported as “more activity than the wild type protein sequence”.

B2: Thr269Asp: Gallus gallus FPP synthase (SEQ ID NO: 1) point mutation Thr269Asp (protein, listed as Gallus gallus)
chain: B1 chain with Y269D
In the case of B2, the “prenyl transferase activity measured by luminescence, compared with wild type” value [1] is reported as “increased prenyl transferase activity as compared to the wild type protein; also recorded: activity greater than wild-type” and the “prenyl transferase activity measured by luminescence, compared with wild type” value ([1]; listed as Thr—269_Asp) is reported as “more activity than the wild type protein sequence”.

B3: Thr269Gln: Gallus gallus FPP synthase (SEQ ID NO: 1) point mutation Thr269Gln (protein, listed as Gallus gallus)
chain: B1 chain with Y269Q
In the case of B3, the “prenyl transferase activity measured by luminescence, compared with wild type” value [1] is reported as “increased prenyl transferase activity as compared to the wild type protein; also recorded: activity greater than wild-type” and the “prenyl transferase activity measured by luminescence, compared with wild type” value ([1]; listed as Thr—269_Gln) is reported as “more activity than the wild type protein sequence”.
